The text below walks through data of PMC7037459, “Constitutive Activation of Guanylate Cyclase by the G86R GCAP1 Variant Is Due to “Locking” Cation-π Interactions that Impair the Activator-to-Inhibitor Structural Transition” (International Journal of Molecular Sciences, 2020).

Numbering of substitutions follows the chain as printed. Numbers in names are those of the source.

The target in assay [1] is T1, Recombinant human Guanylate Cyclase 1 (human, UniProt Q02846 52-1103).
T1 sequence (looked up): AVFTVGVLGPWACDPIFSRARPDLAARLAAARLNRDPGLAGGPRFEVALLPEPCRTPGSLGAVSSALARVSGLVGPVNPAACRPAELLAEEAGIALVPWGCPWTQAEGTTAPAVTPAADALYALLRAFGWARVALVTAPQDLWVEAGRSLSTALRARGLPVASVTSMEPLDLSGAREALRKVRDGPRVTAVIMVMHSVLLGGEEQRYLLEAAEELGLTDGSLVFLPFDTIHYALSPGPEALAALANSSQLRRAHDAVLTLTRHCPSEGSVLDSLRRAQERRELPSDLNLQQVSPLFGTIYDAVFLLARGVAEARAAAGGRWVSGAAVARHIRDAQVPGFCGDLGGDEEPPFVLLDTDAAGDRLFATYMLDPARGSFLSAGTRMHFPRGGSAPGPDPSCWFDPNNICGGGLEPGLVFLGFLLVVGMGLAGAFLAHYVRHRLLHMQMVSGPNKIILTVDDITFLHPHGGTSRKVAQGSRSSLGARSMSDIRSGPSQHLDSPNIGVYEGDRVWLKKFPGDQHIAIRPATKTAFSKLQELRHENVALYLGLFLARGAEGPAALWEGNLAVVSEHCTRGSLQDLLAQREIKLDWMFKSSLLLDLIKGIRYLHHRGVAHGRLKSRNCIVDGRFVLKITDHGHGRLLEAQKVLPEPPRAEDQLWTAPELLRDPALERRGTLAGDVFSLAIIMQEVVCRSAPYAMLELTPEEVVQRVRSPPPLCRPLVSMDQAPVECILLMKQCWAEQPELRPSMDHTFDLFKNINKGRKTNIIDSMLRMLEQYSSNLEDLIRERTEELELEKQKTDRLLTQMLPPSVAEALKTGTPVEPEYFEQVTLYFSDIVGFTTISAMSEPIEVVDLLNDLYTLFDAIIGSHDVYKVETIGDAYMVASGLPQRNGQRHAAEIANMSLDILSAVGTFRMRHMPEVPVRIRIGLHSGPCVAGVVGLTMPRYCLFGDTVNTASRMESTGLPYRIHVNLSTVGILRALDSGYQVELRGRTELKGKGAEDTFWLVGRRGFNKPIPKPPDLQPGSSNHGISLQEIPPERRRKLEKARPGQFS

In assay [2] the target is T1, Recombinant human Guanylate Cyclase 1. Description: cell-based or functional assay.

B1: Guanylate Cyclase activating protein 1 (GCAP1) WT (natural protein)
chain: MGNVMSGKSVEELSSTECHQWYKKFMTECPSGQLTLYEFRQFFGLKNLSPSASQYVEQMFETFDFNKDGYIDFMEYVAALSLVLKGKVEQKLRWYFKLYDVDGNGCIDRDELLTIIQAIRAINPCSDTTMTAEEFTDTVFSKIDVNGDGELSLEEFIEGVQKDQMLLDTLTRSLDLTRIVRRLQNGEQDEEGADEAAEAAG
modifications: myristoylated forms were obtained by co-transformation with yeast N-myristoyl transferase; which form stood in each experiment is not stated
Consider B1, for which, in assay [1], the GC activity (cGMP synthesis) of cell membranes containing GC with ~10 µM GCAP1, 1 mM Mg2+ and 2 mM EGTA (absence of Ca2+) (nmol cGMP*min^−1*mg protein^−1) worked out at 20.4; the fold decrease of cGMP synthesis at 33 µM free Ca2+ (inhibiting conditions) against the maximal activation without Ca2+ amounted to 34 fold.

B2: GCAP1 G86R+W94F (natural protein, human, UniProt P43080 1-201, looked up)
chain: B1 chain with G86R, W94F
modifications: myristoylated forms were obtained by co-transformation with yeast N-myristoyl transferase; which form stood in each experiment is not stated
Turning to B2, in assay [2], the “fold decrease of cGMP synthesis at 33 µM free Ca2+ against the respective maximal activation without Ca2+” value was found to be 3 fold.

B3: GCAP1 G86R+W94L (natural protein, human, UniProt P43080 1-201, looked up)
chain: B1 chain with G86R, W94L
modifications: myristoylated forms were obtained by co-transformation with yeast N-myristoyl transferase; which form stood in each experiment is not stated
Regarding B3, the “fold decrease of cGMP synthesis at 33 µM free Ca2+ against the respective maximal activation without Ca2+” value in assay [2] came to 4 fold.

B4: GCAP1 G86R (natural protein, human, UniProt P43080 1-201, looked up)
chain: B1 chain with G86R
modifications: myristoylated forms were obtained by co-transformation with yeast N-myristoyl transferase; which form stood in each experiment is not stated
With B4, in assay [2], the “fold decrease of cGMP synthesis at 33 µM free Ca2+ against the respective maximal activation without Ca2+” value worked out at 2 fold.
